The values that follow come from patent EP2103936A1.

Experiment [1] concerns the target bt-MalE (Escherichia coli) [MBP: P0AEX9]. Nature of the experiment: Biacore kinetics, bt-MalE on streptavidin SA chip, buffer M3 (5 mM DTT), 25 °C, Langmuir model. In general terms: SPR reads the build-up and loss of mass on a sensor chip optically.
The target is the same in experiment [2]. Put plainly: Biacore kinetics, bt-MalE on SA chip, buffer M2 (no reducing agent), heterogeneous analyte model, population 2 (kon2), taken as the non-coupled molecules of the T46ANBD preparation, possibly dimeric.
Experiment [3] shares this target. Put plainly: Biacore kinetics, bt-MalE on SA chip, buffer M2 (no reducing agent), heterogeneous analyte model, population 2 (kon2), taken as the non-coupled molecules of the L53ANBD preparation.
The target is the same in experiment [4]. Put plainly: Biacore kinetics, bt-MalE on SA chip, buffer M2 (no reducing agent), heterogeneous analyte model, population 2 (kon2), taken as the non-coupled molecules of the R23ANBD preparation.
The target is the same in experiment [5]. Nature of the experiment: Biacore kinetics, bt-MalE on SA chip, buffer M2 (no reducing agent), heterogeneous analyte model, population 2 (kon2), taken as the non-coupled molecules of the N45ANBD preparation.

As usually defined, the kon is the second-order rate constant of association. Lower therefore signals slower complex formation. For DarpOff7(T46C) (designed binder), the kon in experiment [1] was 170000 M⁻¹ s⁻¹; in experiment [2], 18000 M⁻¹ s⁻¹.
Take DarpOff7(L53C) (designed binder): the values for the kon in experiment [1] and in experiment [3] were 370000 M⁻¹ s⁻¹ and 580000 M⁻¹ s⁻¹, respectively.
With DarpOff7(R23C) (designed binder), the kon in experiment [1] was 410000 M⁻¹ s⁻¹; in experiment [4] it was 430000 M⁻¹ s⁻¹.
Take DarpOff7(N45C) (designed binder): the kon came to 290000 M⁻¹ s⁻¹ in experiment [1] and 240000 M⁻¹ s⁻¹ in experiment [5].
